Data: patent US20230151105A1

Legend:
[1] = target: recombinant OX40-Fc protein (R & D, Cat 3388-OX) (human) (UniProt P43489); assay: blocking ELISA: OX40-Fc coated, antibody titrated, competitor OX40L at 50 ng/ml
[2] = target: human OX40 expressed on the cell surface (human) (UniProt P43489); assay: cell-based or functional assay
human OX40 expressed on the cell surface (human), sequence (P43489 29-277): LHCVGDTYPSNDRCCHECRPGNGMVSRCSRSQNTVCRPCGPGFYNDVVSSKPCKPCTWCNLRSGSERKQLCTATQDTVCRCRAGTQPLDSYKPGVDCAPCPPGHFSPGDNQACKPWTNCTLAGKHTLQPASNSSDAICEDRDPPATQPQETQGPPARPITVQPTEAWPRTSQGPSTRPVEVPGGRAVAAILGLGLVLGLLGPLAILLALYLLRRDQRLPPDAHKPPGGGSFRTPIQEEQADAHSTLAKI

recombinant OX40-Fc protein (R & D, Cat 3388-OX) (human), sequence (P43489 29-214): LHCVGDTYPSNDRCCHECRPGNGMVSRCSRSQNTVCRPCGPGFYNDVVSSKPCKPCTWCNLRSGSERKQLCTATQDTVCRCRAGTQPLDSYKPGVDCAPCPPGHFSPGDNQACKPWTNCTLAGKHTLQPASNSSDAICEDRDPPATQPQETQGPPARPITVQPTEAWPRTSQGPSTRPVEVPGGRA

B1: GBR830 (antibody, from another filing, V domains shown)
VH: QVTLKESGPALVKPTQTLTLTCSFSGFSLSTSGMGVGWIRQPPGKALEWIAHIWWDDDKYYNTALKTRLTISKDTSKNQVVLTMTNMDPVDTATYYCARIDWDGFAYWGQGTLVTVSS
VL: EIVLTQSPATLSLSPGERATLSCRASSSVSYMHWYQQKPGQAPRPWIYATSNRATGIPARFSGSGSGTDYTLTISSLEPEDFAVYYCQQWSSNPWTFGQGTKVEIKR
IC50 [1]: 0.3 nM
maximum inhibition rate [1]: 50%
blocking of OX40L-mediated T cell activation, IFNγ secretion, IC50 [2]: 1.1 nM
